The assay has as its target hFZD7 CRD-Fc (human, UniProt O75084 33-185). The experiment in a line: spot phage ELISA.

LAADDLESWCHVMY [SEQ ID NO 60] gave a S/N of 53.5 and a S/W of 3.

In turn, APSDDLEFWCHVMY [SEQ ID NO 44] returned a S/N of 58.3 and a S/W of 3.1.

Turning to AAADDLAFWCDVMY [SEQ ID NO 93], the S/N turned out to be 8.5 and the S/W worked out at 2.7.

APADDLEFWCHAMY [SEQ ID NO 89] showed a S/N of 36.3 and a S/W of 1.9.

Regarding APSDDLEFWCHAMY [SEQ ID NO 46], the S/N was 57.2 and the S/W was determined as 3.1.

Consider LASDDLEFWCHVMY [SEQ ID NO 81], for which the S/N worked out at 48.1 and the S/W is 3.

Take AAADDLEVWCHVMY [SEQ ID NO 54]: the S/N was determined as 54.4 and the S/W came to 3.1.

APADDLAFWCHVVY [SEQ ID NO 74] returned a S/N of 50.6 and a S/W of 3.2.

As to VASDDLEFWCHVMY [SEQ ID NO 58], the S/N was 54 and the S/W was 3.2.

Turning to APADDLEAWCHVMY [SEQ ID NO 45], the S/N was determined as 58.1 and the S/W was 3.1.

VPSADLETWCHVMY [SEQ ID NO 83] had a S/N of 47.3 and a S/W of 2.8.

For the molecule VPADDLAFWCHVMY [SEQ ID NO 67], the S/N was 52.7 and the S/W was found to be 3.1.

The molecule APSDDLASWCHVMY [SEQ ID NO 71] gave a S/N of 52 and a S/W of 3.3.

The molecule AASDDLAFWCHVMY [SEQ ID NO 77] gave a S/N of 49.7 and a S/W of 3.1.

Regarding AASDDLAAWCHVMY [SEQ ID NO 49], the S/N was found to be 55.7 and the S/W turned out to be 3.

VPADDLASWCHVMY [SEQ ID NO 63] came in with a S/N of 53.4 and a S/W of 3.1.

The molecule APSDDLAFWCHVVY [SEQ ID NO 97] returned a S/N of 45 and a S/W of 2.5.

AASDDLEAWCHVMY [SEQ ID NO 70] came in with a S/N of 52.1 and a S/W of 3.1.

In turn, VPSDDLASWCHVMY [SEQ ID NO 68] had a S/N of 52.2 and a S/W of 3.1.

Consider LPADDLAVWCDVMY [SEQ ID NO 52], for which the S/N was 54.9 and the S/W worked out at 3.1.

Take APADDLESWCHVMY [SEQ ID NO 96]: the S/N came out at 53.9 and the S/W was found to be 2.9.

With LPSADLESWCHVMY [SEQ ID NO 79], the S/N is 48.6 and the S/W was 2.9.

VPSADLESWCHVMY [SEQ ID NO 69] showed a S/N of 52.2 and a S/W of 2.9.

Turning to APADDLEFWCHVMY [SEQ ID NO 72], the S/N was found to be 51.6 and the S/W was 3.

In the case of APADDLEFWCHVVY [SEQ ID NO 64], the S/N worked out at 53.2 and the S/W came to 3.1.

In turn, AAADDLEFWCHVMY [SEQ ID NO 48] gave a S/N of 56.1 and a S/W of 3.1.

Molecule AASDDLESWCHVMY [SEQ ID NO 50] yielded a S/N of 55.6 and a S/W of 2.9.

Molecule VAADDLAFWCDVMY [SEQ ID NO 88] registered a S/N of 40.7 and a S/W of 3.

The molecule APSDDLAFWCDVMY [SEQ ID NO 91] returned a S/N of 27.4 and a S/W of 3.1.

Take AAADDLAAWCDVMY [SEQ ID NO 57]: the S/N is 54 and the S/W amounted to 3.1.

As to LPSDDLESWCHVMY [SEQ ID NO 53], the S/N was determined as 54.5 and the S/W was 3.

As for APADDLAFWCHVMY [SEQ ID NO 51], the S/N turned out to be 55.1 and the S/W was 3.

APADDVEFWCHVMY [SEQ ID NO 43]: the S/N is 58.6 and the S/W turned out to be 3.1.

In turn, APSDDLAAWCHVMY [SEQ ID NO 73] came in with a S/N of 51.3 and a S/W of 3.

For APSDDLAAWCHVVY [SEQ ID NO 56], the S/N turned out to be 54 and the S/W is 2.9.

As to APADDLASWCHVMY [SEQ ID NO 61], the S/N amounted to 53.5 and the S/W was 3.2.

The molecule AAADDLAFWCHVMY [SEQ ID NO 80] yielded a S/N of 48.2 and a S/W of 3.1.

Take VPSDDLAFWCHVMY [SEQ ID NO 65]: the S/N was found to be 53.2 and the S/W worked out at 3.

For APADDLAFWCDVMY [SEQ ID NO 90], the S/N stood at 33.8 and the S/W is 3.

PPADDLAFWCDVMY [SEQ ID NO 85] returned a S/N of 44.9 and a S/W of 2.9.

Molecule LPADDLAFWCDVMY [SEQ ID NO 92] came in with a S/N of 23.8 and a S/W of 2.8.

Molecule VASDDLEAWCHVMY [SEQ ID NO 47] came in with a S/N of 57 and a S/W of 3.1.

In turn, VPADDLASWCDVMY [SEQ ID NO 78] came in with a S/N of 49.2 and a S/W of 2.9.

Turning to APSDDVAFWCHVMY [SEQ ID NO 42], the S/N was determined as 58.6 and the S/W came to 3.1.

Consider AAADDVASWCHVMY [SEQ ID NO 87], for which the S/N worked out at 44.5 and the S/W was determined as 2.3.

VASDDLASWCHAMY [SEQ ID NO 62]: the S/N worked out at 53.5 and the S/W came to 3.

Regarding VASDDLASWCHVVY [SEQ ID NO 86], the S/N came out at 44.8 and the S/W came out at 2.5.

In turn, LPAADLAAWCHVMY [SEQ ID NO 82] gave a S/N of 48 and a S/W of 3.

The molecule LPADDLAAWCHVMY [SEQ ID NO 84] had a S/N of 46.7 and a S/W of 3.1.

As to APSDDLEAWCDVMY [SEQ ID NO 75], the S/N was determined as 50.2 and the S/W came to 2.7.

Consider VPSDDLEAWCDVMY [SEQ ID NO 76], for which the S/N turned out to be 49.8 and the S/W came to 2.7.

As to VPADALAVWCDVMY [SEQ ID NO 66], the S/N came to 53 and the S/W turned out to be 2.9.

VAADDLAAWCHVMY [SEQ ID NO 39] had a S/N of 60.7 and a S/W of 3.4.

Consider VAADALEFWCHVMY [SEQ ID NO 55], for which the S/N was determined as 54.2 and the S/W worked out at 3.

Regarding AAADDLEAWCAVMY [SEQ ID NO 59], the S/N amounted to 53.6 and the S/W was determined as 3.1.

The values are drawn from patent US20190359653A1 (Genentech, published 2019).
